From patent US20210393745A1, “OLIGOMER EXTENDED INSULIN-FC CONJUGATES AND THEIR MEDICAL USE” (Novo Nordisk A/S, priority 2018, published 2021)

B1: (A14E, A21G, A22(GQEP)12, A70K^, A71P, B25H, B29R, desB30 human insulin)/(226A, 227G, 228P, 234A, 235K, 297E, 315Q, 384Q, des447 … (other)
chain 1: GIVEQCCTSICSLEQLENYCGGQEPGQEPGQEPGQEPGQEPGQEPGQEPGQEPGQEPGQEPGQEPGQEPKP
chain 2: FVNQHLCGSHLVEALYLVCGERGFHYTPR
chain 3: AGPCPAPEAKGGPSVFLFPPKPKDTLMISRTPEVTCVVVDVSQEDPEVQFNWYVDGVEVHNAKTKPREEQFESTYRVVSVLTVLHQDWLQGKEYKCKVSNKGLPSSIEKTISKAKGQPREPQVYTLPPSQEEMTKNQVSLTCLVKGFYPSDIAVEWESQGQPENNYKTTPPVLDSDGSFFLYSRLTVDKSRWQEGNVFSCSVMHEALHNHYTQKSLSLSLG
modifications: epsilon amino group of Lys A70 (A70K) carries the trivalent linker 3,5-bis[(2-acetyl)amino]benzoyl, which bridges to Cys229 of both Fc polypeptides; ; thiol of Cys229 (EU numbering) linked to -C(O)-CH2- of the linker; aglycosylated (made in E. coli)
B2: (A14E, A21G, A22(GQEP)11, A66G, A67Q, A68E, A69K^, A70P, B16E, B25H, B29R, desB30 human insulin)/(226A, 227G, 228P, 234A, 235K, 297E, 315Q, 384Q, des447 … (other)
chain 1: GIVEQCCTSICSLEQLENYCGGQEPGQEPGQEPGQEPGQEPGQEPGQEPGQEPGQEPGQEPGQEPGQEKP
chain 2: FVNQHLCGSHLVEALELVCGERGFHYTPR
chain 3: B1 chain 3
modifications: epsilon amino group of Lys A69 (A69K) carries the trivalent linker 3,5-bis[(2-acetyl)amino]benzoyl, which bridges to Cys229 of both Fc polypeptides; ; thiol of Cys229 (EU numbering) linked to -C(O)-CH2- of the linker; aglycosylated (made in E. coli)
B3: (A14E, A21G, A22(GQEP)11, A66G, A67Q, A68E, A69K^, A70P, B16H, B25H, B29R, desB30 human insulin)/(226A, 227G, 228P, 234A, 235K, 297E, 315Q, 384Q, des447 … (other)
chain 1: B2 chain 1
chain 2: FVNQHLCGSHLVEALHLVCGERGFHYTPR
chain 3: B1 chain 3
modifications: epsilon amino group of Lys A69 (A69K) carries the trivalent linker 3,5-bis[(2-acetyl)amino]benzoyl, which bridges to Cys229 of both Fc polypeptides; ; thiol of Cys229 (EU numbering) linked to -C(O)-CH2- of the linker; aglycosylated (made in E. coli)

Target: human insulin receptor isotype B (human) (UniProt P06213)
Test: SPA competition with [125I-A14Y]-human insulin, membrane-associated human IR-B; relative to human insulin standard

Molecule	Rel. aff. (%)
(A14E, A21G, A22(GQEP)11, A66G, A67Q, A68E, A69K^, A70P, B16E, B25H, B29R, desB30 human insulin)/(226A, 227G, 228P, 234A, 235K, 297E, 315Q, 384Q, des447 hIgG4-Fc(226-447))3,5-bis[(2-acetyl)amino]benzoyl conjugate	0.59
(A14E, A21G, A22(GQEP)11, A66G, A67Q, A68E, A69K^, A70P, B16H, B25H, B29R, desB30 human insulin)/(226A, 227G, 228P, 234A, 235K, 297E, 315Q, 384Q, des447 hIgG4-Fc(226-447))3,5-bis[(2-acetyl)amino]benzoyl conjugate	1.26
(A14E, A21G, A22(GQEP)12, A70K^, A71P, B25H, B29R, desB30 human insulin)/(226A, 227G, 228P, 234A, 235K, 297E, 315Q, 384Q, des447 hIgG4-Fc(226-447))3,5-bis[(2-acetyl)amino]benzoyl conjugate	3.05

Target: T1, human insulin receptor isotype A (human, UniProt P06213-2)
Test: SPA competition with [125I-A14Y]-human insulin, solubilised human IR-A; relative to human insulin (100%)

Molecule	Insulin receptor affinity [IC50 relative to HI (%)] [%]
B1	4.5
B2	0.4
B3	1.6

Target: T1, human insulin receptor isotype A
Test: SPA competition with [125I-A14Y]-human insulin, membrane-associated human IR-A; relative to human insulin standard
Protocol: (§1) Membrane-associated human IR and IGF-1R are purified from BHK cells stably transfected with the pZem219B vector containing either the human IR-A, IR-B or IGF-IR insert. BHK cells are harvested and homogenized in ice-cold buffer (25 mM HEPES pH 7.4, 25 mM CaCl₂ and 1 mM MgCl₂, 250 mg/L bacitracin, 0.1 mM Pefablock). The homogenates are layered on a 41% (w/v) sucrose cushion and centrifuged for 75 minutes at 95000 g at 4° C. The plasma membranes are collected, diluted 1:5 with buffer (as above) and centrifuged again for 45 minutes at 40000 g at 4° C. The pellets are resuspended in a minimal volume of buffer and drawn through a needle (size 23) three times before storage at −80° C. until usage. The relative binding affinity for either of the membrane-associated human IR-A, IR-B or IGF-1R is determined by competition binding in a SPA setup. IR assays are performed in duplicate in 96-well OptiPlates (Perkin-Elmer Life Sciences). Membrane protein is incubated with gentle agitation for 150 minutes at 25° C. with 50 pM [¹²⁵IA14Y]-human insulin in a total volume of […] assay buffer (50 mM HEPES, 150 mM NaCl, 5 mM MgSO4, 0.01% Triton X-100, 0.1% (w/v) HSA (Sigma A1887), Complete EDTA-free protease inhibitors), 50 μg of wheat germ agglutinate (WGA)-coated PVT microspheres (GE Healthcare) and increasing concentrations of ligand. Assays are terminated by centrifugation of the plate at 2000 rpm for 2 minutes and bound radioactivity quantified by counting on a TopCount NXT (Perkin-Elmer Life Sciences).
(§2) IGF-1R assays are conducted essentially as for the IR binding assays except that membrane-associated IGF-1R and 50 pM [¹²⁵I-Tyr31]-human IGF-1 were employed.

Molecule	Rel. aff. (%)
B1	2.97
B2	0.66
B3	1.27

Target: human insulin-like growth factor-1 receptor (human, UniProt P08069)
Test: SPA competition with [125I-Tyr31]-human IGF-1, membrane-associated human IGF-1R; relative to human insulin standard
Protocol: as §1, §2

Molecule	Rel. aff. (%)
B1	0.91
B2	0.29
B3	0.1

Target: hFcRn ectodomain (human, UniProt P55899)
Test: SPR (Biacore 4000), conjugate immobilised by amine coupling, hFcRn ectodomain as analyte, pH 6.0, 25 C, steady-state fit

Molecule	Kd [µM]
B1	1.5
B2	1.5
B3	1.6
